According to patent US7378498B2, “Protein encoded by a nucleic acid” (The Johns Hopkins University School of Medicine, priority 1998, dated 2008):

System: GST-mGluR5 or GST-Shank3 (residues 1143-1408)
Test: GST pull-down binding of Homer EVH1 point mutants
Design: key: wild-type (+); (−) indicates substantially reduced binding relative to wild-type (+)
Conditions: GST pull-down of myc-tagged mutants from HEK293 lysates, relative to wild-type

Row | Molecule | Binding
1 | F7R: point mutant of the Homer EVH1 domain (protein, left off: small tags and cut ends, point mutant of the Homer EVH1 domain) MGEQPIRSTRAHVFQIDPNTKKNWVPTSKHAVTVSYFYDSTRNVYRIISLDGSKAIINSTITPNMTFTKTSQKFGQWADSRANTVYGLGFSSEHHLSKFAEKFQEFKEAARLAKEKSQEK | +
2 | S8L: point mutant of the Homer EVH1 domain (protein, left off: small tags and cut ends, point mutant of the Homer EVH1 domain) MGEQPIFLTRAHVFQIDPNTKKNWVPTSKHAVTVSYFYDSTRNVYRIISLDGSKAIINSTITPNMTFTKTSQKFGQWADSRANTVYGLGFSSEHHLSKFAEKFQEFKEAARLAKEKSQEK | −
3 | N23A: point mutant of the Homer EVH1 domain (protein, left off: small tags and cut ends, point mutant of the Homer EVH1 domain) MGEQPIFSTRAHVFQIDPNTKKAWVPTSKHAVTVSYFYDSTRNVYRIISLDGSKAIINSTITPNMTFTKTSQKFGQWADSRANTVYGLGFSSEHHLSKFAEKFQEFKEAARLAKEKSQEK | +
4 | S28A: point mutant of the Homer EVH1 domain (protein, left off: small tags and cut ends, point mutant of the Homer EVH1 domain) MGEQPIFSTRAHVFQIDPNTKKNWVPTAKHAVTVSYFYDSTRNVYRIISLDGSKAIINSTITPNMTFTKTSQKFGQWADSRANTVYGLGFSSEHHLSKFAEKFQEFKEAARLAKEKSQEK | −
5 | V34M: point mutant of the Homer EVH1 domain (protein, left off: small tags and cut ends, point mutant of the Homer EVH1 domain) MGEQPIFSTRAHVFQIDPNTKKNWVPTSKHAVTMSYFYDSTRNVYRIISLDGSKAIINSTITPNMTFTKTSQKFGQWADSRANTVYGLGFSSEHHLSKFAEKFQEFKEAARLAKEKSQEK | +
6 | S35V: point mutant of the Homer EVH1 domain (protein, left off: small tags and cut ends, point mutant of the Homer EVH1 domain) MGEQPIFSTRAHVFQIDPNTKKNWVPTSKHAVTVVYFYDSTRNVYRIISLDGSKAIINSTITPNMTFTKTSQKFGQWADSRANTVYGLGFSSEHHLSKFAEKFQEFKEAARLAKEKSQEK | +
7 | D39A: point mutant of the Homer EVH1 domain (protein, left off: small tags and cut ends, point mutant of the Homer EVH1 domain) MGEQPIFSTRAHVFQIDPNTKKNWVPTSKHAVTVSYFYASTRNVYRIISLDGSKAIINSTITPNMTFTKTSQKFGQWADSRANTVYGLGFSSEHHLSKFAEKFQEFKEAARLAKEKSQEK | −
8 | R42E: point mutant of the Homer EVH1 domain (protein, left off: small tags and cut ends, point mutant of the Homer EVH1 domain) MGEQPIFSTRAHVFQIDPNTKKNWVPTSKHAVTVSYFYDSTENVYRIISLDGSKAIINSTITPNMTFTKTSQKFGQWADSRANTVYGLGFSSEHHLSKFAEKFQEFKEAARLAKEKSQEK | −
9 | R42A: point mutant of the Homer EVH1 domain (protein, left off: small tags and cut ends, point mutant of the Homer EVH1 domain) MGEQPIFSTRAHVFQIDPNTKKNWVPTSKHAVTVSYFYDSTANVYRIISLDGSKAIINSTITPNMTFTKTSQKFGQWADSRANTVYGLGFSSEHHLSKFAEKFQEFKEAARLAKEKSQEK | +
10 | R46A: point mutant of the Homer EVH1 domain (protein, left off: small tags and cut ends, point mutant of the Homer EVH1 domain) MGEQPIFSTRAHVFQIDPNTKKNWVPTSKHAVTVSYFYDSTRNVYAIISLDGSKAIINSTITPNMTFTKTSQKFGQWADSRANTVYGLGFSSEHHLSKFAEKFQEFKEAARLAKEKSQEK | −
11 | R46C: point mutant of the Homer EVH1 domain (protein, left off: small tags and cut ends, point mutant of the Homer EVH1 domain) MGEQPIFSTRAHVFQIDPNTKKNWVPTSKHAVTVSYFYDSTRNVYCIISLDGSKAIINSTITPNMTFTKTSQKFGQWADSRANTVYGLGFSSEHHLSKFAEKFQEFKEAARLAKEKSQEK | +
12 | I48A: point mutant of the Homer EVH1 domain (protein, left off: small tags and cut ends, point mutant of the Homer EVH1 domain) MGEQPIFSTRAHVFQIDPNTKKNWVPTSKHAVTVSYFYDSTRNVYRIASLDGSKAIINSTITPNMTFTKTSQKFGQWADSRANTVYGLGFSSEHHLSKFAEKFQEFKEAARLAKEKSQEK | +
13 | N58A: point mutant of the Homer EVH1 domain (protein, left off: small tags and cut ends, point mutant of the Homer EVH1 domain) MGEQPIFSTRAHVFQIDPNTKKNWVPTSKHAVTVSYFYDSTRNVYRIISLDGSKAIIASTITPNMTFTKTSQKFGQWADSRANTVYGLGFSSEHHLSKFAEKFQEFKEAARLAKEKSQEK | +
14 | N64G: point mutant of the Homer EVH1 domain (protein, left off: small tags and cut ends, point mutant of the Homer EVH1 domain) MGEQPIFSTRAHVFQIDPNTKKNWVPTSKHAVTVSYFYDSTRNVYRIISLDGSKAIINSTITPGMTFTKTSQKFGQWADSRANTVYGLGFSSEHHLSKFAEKFQEFKEAARLAKEKSQEK | +
15 | F67S: point mutant of the Homer EVH1 domain (protein, left off: small tags and cut ends, point mutant of the Homer EVH1 domain) MGEQPIFSTRAHVFQIDPNTKKNWVPTSKHAVTVSYFYDSTRNVYRIISLDGSKAIINSTITPNMTSTKTSQKFGQWADSRANTVYGLGFSSEHHLSKFAEKFQEFKEAARLAKEKSQEK | −
16 | K69A: point mutant of the Homer EVH1 domain (protein, left off: small tags and cut ends, point mutant of the Homer EVH1 domain) MGEQPIFSTRAHVFQIDPNTKKNWVPTSKHAVTVSYFYDSTRNVYRIISLDGSKAIINSTITPNMTFTATSQKFGQWADSRANTVYGLGFSSEHHLSKFAEKFQEFKEAARLAKEKSQEK | +
17 | Q72A: point mutant of the Homer EVH1 domain (protein, left off: small tags and cut ends, point mutant of the Homer EVH1 domain) MGEQPIFSTRAHVFQIDPNTKKNWVPTSKHAVTVSYFYDSTRNVYRIISLDGSKAIINSTITPNMTFTKTSAKFGQWADSRANTVYGLGFSSEHHLSKFAEKFQEFKEAARLAKEKSQEK | +
18 | F74A: point mutant of the Homer EVH1 domain (protein, left off: small tags and cut ends, point mutant of the Homer EVH1 domain) MGEQPIFSTRAHVFQIDPNTKKNWVPTSKHAVTVSYFYDSTRNVYRIISLDGSKAIINSTITPNMTFTKTSQKAGQWADSRANTVYGLGFSSEHHLSKFAEKFQEFKEAARLAKEKSQEK | +
19 | F74L: point mutant of the Homer EVH1 domain (protein, left off: small tags and cut ends, point mutant of the Homer EVH1 domain) MGEQPIFSTRAHVFQIDPNTKKNWVPTSKHAVTVSYFYDSTRNVYRIISLDGSKAIINSTITPNMTFTKTSQKLGQWADSRANTVYGLGFSSEHHLSKFAEKFQEFKEAARLAKEKSQEK | +
20 | F90S: point mutant of the Homer EVH1 domain (protein, left off: small tags and cut ends, point mutant of the Homer EVH1 domain) MGEQPIFSTRAHVFQIDPNTKKNWVPTSKHAVTVSYFYDSTRNVYRIISLDGSKAIINSTITPNMTFTKTSQKFGQWADSRANTVYGLGSSSEHHLSKFAEKFQEFKEAARLAKEKSQEK | +
21 | E93K: point mutant of the Homer EVH1 domain (protein, left off: small tags and cut ends, point mutant of the Homer EVH1 domain) MGEQPIFSTRAHVFQIDPNTKKNWVPTSKHAVTVSYFYDSTRNVYRIISLDGSKAIINSTITPNMTFTKTSQKFGQWADSRANTVYGLGFSSKHHLSKFAEKFQEFKEAARLAKEKSQEK | +
22 | H95A: point mutant of the Homer EVH1 domain (protein, left off: small tags and cut ends, point mutant of the Homer EVH1 domain) MGEQPIFSTRAHVFQIDPNTKKNWVPTSKHAVTVSYFYDSTRNVYRIISLDGSKAIINSTITPNMTFTKTSQKFGQWADSRANTVYGLGFSSEHALSKFAEKFQEFKEAARLAKEKSQEK | +
23 | L96S: point mutant of the Homer EVH1 domain (protein, left off: small tags and cut ends, point mutant of the Homer EVH1 domain) MGEQPIFSTRAHVFQIDPNTKKNWVPTSKHAVTVSYFYDSTRNVYRIISLDGSKAIINSTITPNMTFTKTSQKFGQWADSRANTVYGLGFSSEHHSSKFAEKFQEFKEAARLAKEKSQEK | +
